The source of these data is patent US7973137.

Assay [1] concerns the target SIY-loaded H-2 K^bm3 on T2 K^bm3 cells (murine). Description: cell-based or functional assay.
In assay [2] the target is dEV-8-loaded H-2 K^bm3 on T2 K^bm3 cells (murine). Description: cell-based or functional assay.
The target of assay [3] is p2Ca-loaded H-2 L^d (murine) (UniProt P01897). The assay is described as follows: cell-based or functional assay.
For assay [4], the target named is SIY-loaded H-2 K^b on T2 K^b cells (murine) (UniProt P01901). The assay is described as follows: cell-based or functional assay.
The target of assay [5] is H-2 L^d on RENCA cells, naturally loaded (murine) (UniProt P01897). The assay is described as follows: flow cytometry on RENCA cells cultured with 5-50 units/ml γ-IFN. For orientation: A flow cytometer gives signals particle by particle.
For assay [6], the target named is unloaded H-2 L^d on RMA-S L^d cells (no peptide added) (murine) (UniProt P01897). The assay is described as follows: direct flow cytometry on RMA-S L^d cells without added peptide.
For assay [7], the target named is QL9-loaded H-2 L^d (murine) (UniProt P01897). Description: flow cytometry on cells loaded with a titration of peptide; lower end of the titration.
Assay [8] addresses p2Ca-loaded H-2 L^d (murine) (UniProt P01897). The assay is described as above.
The target of assay [9] is SIY-loaded H-2 K^bm3 on T2 K^bm3 cells (murine). The assay is described as follows: flow cytometry on peptide-loaded T2 K^bm3 cells.
The target in assay [10] is QL9-loaded H-2 L^d (murine) (UniProt P01897). Description: direct flow cytometry on peptide-loaded RMAS-L^d cells.
Assay [11] shares this target. Description: direct flow cytometry on peptide-loaded RMA-S L^d cells, serial dilutions, detected with H57-FITC.
In assay [12] the target is p2Ca-loaded H-2 L^d (murine) (UniProt P01897). The assay is described as follows: flow cytometry on cells loaded with a titration of peptide; upper end of the titration.

Values joined by “and” are separate entries in the source; they are usually repeats but may differ in a detail not shown here. Equal entries are not always repeated.

2C TCR on 2C CTL, sequence (A2KF29 whole entry): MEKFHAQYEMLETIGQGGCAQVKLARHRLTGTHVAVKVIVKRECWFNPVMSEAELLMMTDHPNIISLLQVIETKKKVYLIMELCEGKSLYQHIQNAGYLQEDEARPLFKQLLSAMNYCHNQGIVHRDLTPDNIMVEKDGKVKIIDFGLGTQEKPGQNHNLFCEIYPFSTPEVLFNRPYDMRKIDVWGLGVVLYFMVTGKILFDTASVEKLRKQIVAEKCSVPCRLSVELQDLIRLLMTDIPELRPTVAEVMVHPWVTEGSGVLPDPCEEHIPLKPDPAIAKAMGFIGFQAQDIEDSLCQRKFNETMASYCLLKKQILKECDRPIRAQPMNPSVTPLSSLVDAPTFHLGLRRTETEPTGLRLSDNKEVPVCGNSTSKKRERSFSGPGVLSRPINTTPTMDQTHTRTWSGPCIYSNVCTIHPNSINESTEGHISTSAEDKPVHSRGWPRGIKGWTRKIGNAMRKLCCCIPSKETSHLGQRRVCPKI
soluble divalent 2C TCR/Ig, sequence (A2KF29 whole entry, looked up, tested part not stated): as the sequence (A2KF29 whole entry) above
p2Ca-loaded H-2 L^d (murine), sequence (P01897 25-362): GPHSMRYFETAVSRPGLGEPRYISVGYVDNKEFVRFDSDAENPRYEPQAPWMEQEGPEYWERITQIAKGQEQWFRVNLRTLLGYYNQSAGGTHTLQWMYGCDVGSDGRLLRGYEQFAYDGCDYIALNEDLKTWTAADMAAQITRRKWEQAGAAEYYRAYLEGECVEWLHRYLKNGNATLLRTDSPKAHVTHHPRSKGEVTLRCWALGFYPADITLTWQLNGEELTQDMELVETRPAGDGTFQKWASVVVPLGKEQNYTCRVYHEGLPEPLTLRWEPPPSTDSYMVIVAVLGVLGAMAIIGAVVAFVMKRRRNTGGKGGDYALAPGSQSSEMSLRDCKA
QL9-loaded H-2 L^d (murine), sequence (P01897 25-362): as above
H-2 L^d on RENCA cells, naturally loaded (murine), sequence (P01897 25-362): as above
unloaded H-2 L^d on RMA-S L^d cells (no peptide added) (murine), sequence (P01897 25-309): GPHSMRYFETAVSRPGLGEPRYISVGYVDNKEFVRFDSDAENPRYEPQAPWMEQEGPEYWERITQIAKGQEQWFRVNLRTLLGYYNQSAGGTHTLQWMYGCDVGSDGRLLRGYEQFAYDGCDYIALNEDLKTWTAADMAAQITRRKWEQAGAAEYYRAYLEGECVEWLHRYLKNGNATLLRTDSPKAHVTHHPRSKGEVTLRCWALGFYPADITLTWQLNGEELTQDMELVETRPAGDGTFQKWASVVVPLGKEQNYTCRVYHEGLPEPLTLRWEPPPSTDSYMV
SIY-loaded H-2 K^b on T2 K^b cells (murine), sequence (P01901 22-369): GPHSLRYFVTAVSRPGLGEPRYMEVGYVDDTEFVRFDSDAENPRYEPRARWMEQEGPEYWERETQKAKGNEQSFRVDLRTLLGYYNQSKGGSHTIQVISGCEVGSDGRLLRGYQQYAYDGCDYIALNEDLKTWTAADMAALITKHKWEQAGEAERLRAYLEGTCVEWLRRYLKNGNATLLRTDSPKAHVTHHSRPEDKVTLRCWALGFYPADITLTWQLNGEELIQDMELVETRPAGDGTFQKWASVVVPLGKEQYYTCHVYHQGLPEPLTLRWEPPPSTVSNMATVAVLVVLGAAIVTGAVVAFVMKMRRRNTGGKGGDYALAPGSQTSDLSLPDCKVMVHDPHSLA

Take 2C TCR on 2C CTL (from UniProt A2KF29): the 2C CTL mediated lysis of peptide-loaded T2 cells (51Cr release), LD50 of the peptide was 100 ng/mL in assay [1]; 0.5 ng/mL and 1 ng/mL in [2]; 10 ng/mL in [4]. Moreover, the 2C CTL mediated lysis of p2Ca-loaded T2 L^d cells (51Cr release), LD50 of the peptide in assay [3] was found to be 0.5 ng/mL.

For the substance mAb 30.5.7 (antibody), the fold increase of serologically reactive H-2 L^d on γ-IFN treated cells over untreated cells in assay [5] fell in the range of 5 to 6 fold. In assay [6], the fold increase of mean channel fluorescence (cells at 27° C. against cells at 37° C.) stood at 5 fold.

With “soluble divalent 2C TCR/Ig (from UniProt A2KF29)”, the MCF in [7] was 1 MCF; in assay [8] it was 1 MCF; in [9] it was 36 MCF; in assay [10], 3000 MCF; in [12], 600 MCF. In assay [11], this substance came in with a concentration at which binding was detected of less than 1 nM.
